The record followed here is PMC5016158.

In this experiment the target is Lucy-Flag-rsstr3-TAS2R14-HSV (rat | human) (UniProt P30936).
Chain of UniProt P30936 (P30936 whole entry): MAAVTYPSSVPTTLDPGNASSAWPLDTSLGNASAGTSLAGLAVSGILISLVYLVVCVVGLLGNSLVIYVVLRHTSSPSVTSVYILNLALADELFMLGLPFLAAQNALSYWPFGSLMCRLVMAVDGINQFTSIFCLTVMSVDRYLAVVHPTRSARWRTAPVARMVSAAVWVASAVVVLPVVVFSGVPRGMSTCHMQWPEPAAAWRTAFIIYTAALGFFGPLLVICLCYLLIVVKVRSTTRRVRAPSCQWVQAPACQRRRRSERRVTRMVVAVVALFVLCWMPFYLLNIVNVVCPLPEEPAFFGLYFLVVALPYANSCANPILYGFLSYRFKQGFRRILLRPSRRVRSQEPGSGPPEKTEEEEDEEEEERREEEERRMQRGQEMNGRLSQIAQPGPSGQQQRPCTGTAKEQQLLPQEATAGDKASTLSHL

“HA-β2AR (from UniProt P07550 1-413) (receptor)” came in with an impairment by ISO (10 uM) of the relaxation of HASM cells (endogenous receptors) to the TAS2R14 agonist FFA (100 uM), magnetic twisting cytometry of 50%.
